Experiments:
[1] = target: T1, human Siglec15-Fc protein (human); assay: competitive ELISA: coated human Siglec15-Fc, blocked ligand biotin-labeled human LRRC4C-Fc
T1 construct: In house made; also called recombinant human Siglec15 protein with human IgG1 Fc at the C-terminus
Procedure: Serially diluted anti-Siglec15 antibodies or the controls (starting at 66.67 nM with a 5-fold serial dilution) in PBST with 2.5% w/v non-fatty milk were added to the Siglec15-Fc bound plates, 100 μl per well, and incubated with the human Siglec15-Fc protein at 37° C. for 40 minutes. Plates were washed 4 times again using wash buffer, then added and incubated for 40 minutes at 37° C. with 100 μl/well 290 ng/ml biotin-labeled human LRRC4C-Fc protein (prepared in-house with SEQ ID NO: 23). Plates were washed again using wash buffer. Thereafter, the plates were added with 100 μl/well streptavidin conjugated HRP (1:5000 dilution in PBST buffer, Jackson Immunoresearch, Cat #016-030-084) and incubated for 40 minutes at 37° C. Plates were washed again using wash buffer. Finally, TMB was added and the reaction was stopped using 1M H₂SO₄, and the absorbance of each well was read on a microplate reader using dual wavelength mode with 450 nm for TMB and 630 nm as the reference wavelength, then the OD (450-630) values were plotted against antibody concentration. Data was analyzed using Graphpad Prism software and IC₅₀ values were reported.

[2] = target: T2, human Siglec15-mouse Fc protein (human); assay: cell based blocking FACS: human Siglec15-mouse Fc in solution, blocked ligand human LRRC4C on LRRC4C-3F12-1B9 cells
T2 construct: In house made
T2 chain: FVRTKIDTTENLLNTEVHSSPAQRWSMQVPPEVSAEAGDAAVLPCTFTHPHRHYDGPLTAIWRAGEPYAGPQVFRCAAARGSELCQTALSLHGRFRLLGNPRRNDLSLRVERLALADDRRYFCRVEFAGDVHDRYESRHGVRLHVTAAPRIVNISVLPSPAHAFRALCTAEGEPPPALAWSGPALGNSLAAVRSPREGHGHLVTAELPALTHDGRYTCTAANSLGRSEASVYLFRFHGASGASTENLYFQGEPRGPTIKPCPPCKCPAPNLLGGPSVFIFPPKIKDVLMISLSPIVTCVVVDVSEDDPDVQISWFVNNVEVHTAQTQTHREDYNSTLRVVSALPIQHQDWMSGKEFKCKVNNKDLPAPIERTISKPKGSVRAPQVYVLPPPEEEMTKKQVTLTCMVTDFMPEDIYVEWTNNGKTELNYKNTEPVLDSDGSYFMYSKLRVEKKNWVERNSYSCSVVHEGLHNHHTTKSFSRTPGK
Procedure: The activities of the anti-Siglec15 antibodies to block binding of Siglec15 protein to cell surface LRRC4C were evaluated by Flow Cytometry (FACS), using in house made LRRC4C-3F12-1B9 cells. Briefly, HEK-293 cells (ATCC #CRL-1573) were transfected with pCMV-T-P plasmid constructs with the nucleotide sequence encoding human LRRC4C (amino acid residues Met1-Ile640 of uniprot #Q9HCJ2) inserted between EcoRI and XbaI, following the instruction of lipofectamine 3000 transfection reagent (Thermo Fisher). A stable cell named LRRC4C-3F12-1B9 was chosen for subsequent cell based ligand-blocking assay.
Briefly, the anti-Siglec15 antibodies of the disclosure or controls were diluted with human Siglec15-mouse Fc protein (prepared in-house with SEQ ID NO: 26, 8 μg/ml […] in FACS buffer), starting at 66.67 nM with a 5-fold serial dilution, and incubated at room temperature for 40 minutes. Then, LRRC4C-3F12-1B9 cells were harvested from cell culture flasks, washed twice and re-suspended in PBS containing 2% v/v Fetal Bovine Serum (FACS buffer). Then, 1×10⁵ cells per well in 96 well-plates were incubated in 100 μL of the antibody/Siglec15-mouse Fc mixtures for 40 minutes at 4° C. […] Cells were washed twice and re-suspended in FACS buffer. Fluorescence was measured using a Becton Dickinson FACS Canto II-HTS equipment. Data was analyzed using Graphpad Prism software and IC₅₀ values were reported.

[3] = target: T1, human Siglec15-Fc protein; assay: competitive ELISA: biotin-labeled human Siglec15-Fc in solution, competitor coated benchmark; falling curve, table row is labelled EC50
Procedure: The abilities of the anti-Siglec15 antibodies of the disclosure to block benchmark-human Siglec15 binding were measured in a competitive ELISA assay. Briefly, the benchmark was coated on 96-well micro plates at 2 μg/mL in PBS, 100 μl per well, and incubated for 2 hours at 37° C. Then plates were washed once with wash buffer, and blocked with 5% w/v non-fatty milk in PBST overnight at 4° C. The next day, the anti-Siglec15 antibodies of the disclosure or controls were diluted with biotin labeled human Siglec15-Fc protein (prepared in-house with SEQ ID NO: 19, 37 ng/ml in PBST with 2.5% w/v non-fatty milk), starting at 80 nM with a 4-fold serial dilution, and incubated at room temperature for 40 minutes. After plate washing 4 times, the antibody/Siglec15-Fc mixtures were added to benchmark coated plates, 100 μl per well. After incubation at 37° C. for 40 minutes, plates were washed 4 times again using wash buffer. Then the plates were added and incubated with 100 μl/well streptavidin conjugated HRP for 40 minutes at 37° C. […] Finally, TMB was added and the reaction was stopped using 1M H₂SO₄, and the absorbance of each well was read on a microplate reader using dual wavelength mode with 450 nm for TMB and 630 nm as the reference wavelength, then the OD (450-630) values were plotted against antibody concentration. Data was analyzed using Graphpad Prism software and IC₅₀ values were reported.
Target sequence in this assay (chain, as listed by the source limits assumed): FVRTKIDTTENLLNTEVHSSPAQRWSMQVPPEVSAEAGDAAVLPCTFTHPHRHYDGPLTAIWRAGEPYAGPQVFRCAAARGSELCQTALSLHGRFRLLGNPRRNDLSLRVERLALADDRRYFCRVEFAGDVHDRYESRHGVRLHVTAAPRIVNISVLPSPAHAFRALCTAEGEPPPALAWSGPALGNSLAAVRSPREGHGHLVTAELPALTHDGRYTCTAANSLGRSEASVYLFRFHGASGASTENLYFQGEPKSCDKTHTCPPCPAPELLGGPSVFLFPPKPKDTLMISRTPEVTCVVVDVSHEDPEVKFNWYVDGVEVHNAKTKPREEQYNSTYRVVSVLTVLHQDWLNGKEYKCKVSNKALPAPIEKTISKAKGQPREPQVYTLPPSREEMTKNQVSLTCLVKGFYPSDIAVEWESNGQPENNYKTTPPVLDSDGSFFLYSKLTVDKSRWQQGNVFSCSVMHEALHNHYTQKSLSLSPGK

B1: anti-Siglec15 benchmark (ch5G12) (antibody, human IgG1, kappa, V domains shown)
VH: QVQLQQPGAELVKPGASVKMSCKASGYTFTSYWITWVIQRPGQGLEWIGDIYCGSDTMHYNEKFKNKATLTVDTSSSTAYMQLSSLTSEDSAVYYCARWWDYGSSYDYFDYWGQGTTLTVSS
VL: DIKMTQSPSSMYASLGERVTITCKASQDINSYLSWFQQKPGKSPKTLIYRANRLVDGVPSRFSGSGSGQDYSLTISSLEYEDMGIYYCLQYDEFPYTFGGGTKLEIKR
notes: ch5G12 (US 20190202912A1); also called BM; Siglec15-ch5G9
[1]
  IC50: 855 pM
[2]
  IC50: 707 pM
[3]
  IC50: 486 pM
